Patent US20230295310A1 (ABCELLERA BIOLOGICS, published 2023)

B1: mAb 103 (antibody, V domains shown)
VH: QVQLVQSGAEVMKPGASVKVSCKASGYTFTDFYIHWVRQAPGQGLEWMGWINPKSGNTRFAQKFQGRVTMTRDTSIATSYMELSRLRSDDTAVFYCARMGDLLALDYWGQGTLVTVSS
VL: EIVLTQSPATLSLSPGERATLSCRASQSVSSYLAWYQQKPGQAPRLLIYDASNRATGIPARFSGSGSGTDFTLTISSLEPEDFAVYYCQQRSNWYTFGQGTKLEIK
B2: mAb 104 (antibody, V domains shown)
VH: QVQLVQSGAEVKKPGASVKVSCKASGYTFTDFYIHWVRQAPGQGLEWMGWINPKSGNTRFAQRFQGRVTMTRDTSITTSYMELSRLRSDDTAVFYCARMGDLLALDYWGQGTLVTVSS
VL: not shown
B3: mAb 105 (antibody, V domains shown)
VH: QVQLQESGPGLVKPSATLSLTCTVSGGSISTYYWSWIRQSPGKGLEWIGYISYSVNTNPSLKSRVTISVDKSKNQLSLNLRSATGADTAVYYCARGGLYGGNAGRFDLWGQGTLVTVSS
VL: EIVLTQSPGTLSLSPGERATLSCRASQSVINNYVAWYQQKPGQAPSLIITGVSRRATGIPDRFIGSGSGTDFILIISRLEPEDFAVYCCQQYGNSPWTFGQGTRVEIK
B4: mAb 107 (antibody, V domains shown)
VH: QVQLQESGPGLVKPSETLSLTCTVSGGSISSYCWSWIRQPPGKGLEWIGYIYNIGSTNFNPSLKSRVTISVDTSKNQFSLKLNSVTAADTAVYYCARGGLYSGNGGRFDPWGRGTLVTVSS
VL: EIVLTQSPGTLSLSPGQTATLSCRASQGVRSNYLAWYQQKPGQAPRLLIYGASSRATGIPVRFSGSGSGTGFTLTMSRLEPEDFAVYYCQQYGSSPWTFGQGSKVEIK
B5: mAb 108 (antibody, V domains shown)
VH: QVQLVESGGGVVQPGRSLRLSCAASGFTFSSYGMHWVRQAPGKGLEWVAVIWYDGSNKYYEDSVKGRFTISRDNSKNTLHLQMNSLRVEDTAVYYCARGLEFDYWGQGTLVTVSS
VL: DIVMTQTPLSSPVTLGQPASISCRSSQSLVHSDGITYLNWLQQRPGQPPRLLIYKISNRFSGVPDRFSGSGSGTDFTLKISRVEAEDVGVYYCMQATQFPWTFGQGTKVEIK
B6: mAb 124 (antibody, V domains shown)
VH: EVQVVESGGDLVQPGGSLRLSCAASGFTFSTYAMTWVRQAPGKGLEWISTISGSGHNTYYADSVKGRFTISRGNSKNTLFLQMNSLRAEDTAVYYCAKENCGGDCLYYMDVWGKGTTVTVSS
VL: DIQMTQSPSSLSASVGDRVTITCRASQSISNYLNWYQQKSGKAPKLLIYFASSLQSGVPSRFGGSGAGTDFTLTISSLQPEDFATYSCQQSYSTPLTFGGGTKVEIK
B7: mAb 135 (antibody, V domains shown)
VH: EVQLVESGGGLVKTGGSLRLSCVASGFSFKKAWMNWVRQAPGKGLEWVGRIKRNSDGGTTDYAAPVKGRFTLSRDDSKNTLYLQMNSLKTEDTAVYYCTTLDSSSWYVGYYYMDVWGKGTTVTVSS
VL: not shown
B8: mAb 138 (antibody, V domains shown)
VH: QVLLVQSGPEVKKPGASVKVSCKASGYTFTDYYLHWVRQAPGQGLDWMGWINPKSGGTRNAQKFQGRVTMTRDTSISTAYMDLTRLRSDDTAVYYCARVGGELLFDYWGQGTLVTVSS
VL: DIVMTQSPLSLSVTPGEPASISCRSSQSLLHSDGYNYLDWFLQKPGQSPHLLIFLGSNRASGVPDRFSGSGSGTDFTLKISRVEAEDVGIYYCMQALQTPLTFGGGTKVEIK
B9: mAb 139 (antibody, V domains shown)
VH: QVQLVESGGGVVQPGRSLRLSCAASGFTFSSYAMHWVRQAPGKGLEWVAVIWFDGTNKYYTDSVRGRFTISRDNSKNTLYLQMNSLRAEDTAVYYCATERGITETTRGFDYWGQGTLVTVSS
VL: DIQMTQSPSSLSASVGDRVTITCRTSQGIGNDLDWYQQNPGKAPKRLIYATSNLQSGVPSRFSGSGSGTEFTLTISGLQPEDFTTYYCLRHNSYPYTFGQGTKLEIT
B10: mAb 147 (antibody, V domains shown)
VH: QVQLVQSGAEVKKPGASVKVSCKASGYTFTAYHTHWVRQAPGQGLEWMGWIYPKSGRTTYTQKFQGRVTMTRDTSISTVYMELSRLKSDDTAVYYCARVGALLFDYWGQGTLVTVSS
VL: not shown
B11: mAb 148 (antibody, V domains shown)
VH: QVQLVQSGAEVKKPGASVKVSCKASGYTFTAYHTHWVRQAPGQGLEWMGWIYPKSGRTTYTQKFQGRVTMTRDTSISTVYMELSRLKSDDTAVYYCARVGALLFDYWGQGTLVTVSS
VL: EIVLTQSPATLSLSPGERATLSCRASQSVSSYLAWYQQKPGQAPRLLIYDASNRATGIPARFSGSGSGTDFTLTISSLEPEDFAVYYCQQRSNWPFTFGPGTKVDIK
B12: mAb 150 (antibody, V domains shown)
VH: QVQLVQSGAEVKKPGASVKVSCKASGYTFTAYHTHWVRQAPGQGLEWMGWIYPKSGRTTYTQKFQGRVTMTRDTSISTVYMELSRLKSDDTAVYYCARVGALLFDYWGQGTLVTVSS
VL: EIVLTQSPATLSLSPGERATLSCRASQSVSSYLAWYQQKPGQAPRLLIYDASNRATGIPARFSGSGSGTDFTLTISSLEPEDFAVYYCQQRSNWPLTFGGGTKVEIK
B13: mAb 149 (antibody, V domains shown)
VH: QVQLVQSGAEVKKPGASVKVSCKASGYTFTAYHTHWVRQAPGQGLEWMGWIYPKSGRTTYTQKFQGRVTMTRDTSISTVYMELSRLKSDDTAVYYCARVGALLFDYWGQGTLVTVSS
VL: not shown
B14: mAb 151 (antibody, V domains shown)
VH: QVQLVQSGAEVKKPGASVKVSCKASGYTFTAYHTHWVRQAPGQGLEWMGWIYPKSGRTTYTQKFQGRVTMTRDTSISTVYMELSRLKSDDTAVYYCARVGALLFDYWGQGTLVTVSS
VL: DIQMTQSPSSLSASVGDRVTITCRASQGIRNDLGWYQQKPGKAPKCLIYAASNLQSGVPSRFSGSGSGTEFTLTISSLQPEDFATYYCLQHNSYPRTFGQGTKVDVK
B15: mAb 168 (antibody, V domains shown)
VH: EVQLVQSGAEVKKPGESLKISCKGSGYIFTSYWIGWVRQMPGKGLEWMGIIYPGDSDTRYSPSFQGQVTISADKSISTAYLQWSSLKASDTAMYYCARRNYYYYMDVWGKGTTVTVSS
VL: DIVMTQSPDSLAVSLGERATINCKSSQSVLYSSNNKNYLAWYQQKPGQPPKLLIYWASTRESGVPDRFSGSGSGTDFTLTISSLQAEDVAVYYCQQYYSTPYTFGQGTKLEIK
B16: mAb 181 (antibody, V domains shown)
VH: QVQLVQSGADMKKPGASVKVSCKASGYTFTDYHIHWVRQAPGQGLEWMGWINPKSGRTMFAQNFQDRVTMTRDTSISTAYMELNRLRSDDSAVYYCARVTQLVFDHWGQGTLVTVSF
VL: AIQMTQSPSSLSASVGDRVTITCRASQGIRNDLGWYQQKPGKAPKLLIYAASSLQSGVPSRFSGSGSGTDFTLTISSLQPEDFATYYCLQDYNYMYTFGQGTKLEIK
notes: VH/VL only

What was measured:
[1] = target: T1, human CD3 expressed on cells (human, UniProt P07766 23-207; P04234 22-171; P09693 23-182); assay: flow cytometry, 25 nM
T1 construct: whole, on cells; CD3 complex on Jurkat cells and on human primary T cells
T1 sequence (P07766 23-207, chain 1 of 3): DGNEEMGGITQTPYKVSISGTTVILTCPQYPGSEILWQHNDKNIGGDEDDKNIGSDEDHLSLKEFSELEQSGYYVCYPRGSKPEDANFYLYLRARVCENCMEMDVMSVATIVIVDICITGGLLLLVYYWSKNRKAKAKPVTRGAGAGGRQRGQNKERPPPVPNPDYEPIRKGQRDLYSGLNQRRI
T1 sequence (P04234 22-171, chain 2 of 3): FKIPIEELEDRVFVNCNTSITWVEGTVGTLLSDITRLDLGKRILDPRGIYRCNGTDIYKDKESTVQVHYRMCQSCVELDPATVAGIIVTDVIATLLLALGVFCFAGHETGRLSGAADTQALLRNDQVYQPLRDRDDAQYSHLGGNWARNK
T1 sequence (P09693 23-182, chain 3 of 3): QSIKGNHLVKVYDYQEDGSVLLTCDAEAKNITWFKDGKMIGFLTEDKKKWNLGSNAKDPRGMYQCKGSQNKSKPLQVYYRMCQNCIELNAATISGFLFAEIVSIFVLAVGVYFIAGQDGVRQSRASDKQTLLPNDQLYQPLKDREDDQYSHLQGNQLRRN
How it was run: (§1)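 Cells expressing CD3 were exposed to each antibody diluted to 25 nM for 30 minutes at 4° C, then analysed by flow cytometry. The median fluorescence signal was expressed relative to an isotype control, and a value of at least 10 indicated binding.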

[2] = target: T1, human CD3 expressed on cells; assay: flow cytometry, 25 nM, Jurkat cells (human primary T cells in c4 also <10)
Procedure: (§2) Purified antibodies were confirmed to bind CD3 expressed on cells using the CytoFLEX S or LX flow cytometers (Beckman Coulter). Antibodies were diluted to 25 nM in FACS buffer (PBS+2% FBS) and were incubated with CD3-expressing cells for 30 minutes at 4° C. […] The median fluorescence intensity of the binding signal for each antibody was normalized to the isotype control to obtain a fold over isotype value. An antibody with a fold over isotype (FOI) of ≥10 was considered to be positive for binding.

[3] = target: T2, cynomolgus monkey CD3 expressed on primary T cells (cynomolgus monkey, UniProt Q95LI5 22-198; Q95LI8 22-171; Q95LI7 23-181); assay: flow cytometry, 25 nM, cyno primary T cells
T2 construct: whole, on cells; CD3 complex on purified cynomolgus monkey T cells; also called cyno CD3
T2 sequence (Q95LI5 22-198, chain 1 of 3): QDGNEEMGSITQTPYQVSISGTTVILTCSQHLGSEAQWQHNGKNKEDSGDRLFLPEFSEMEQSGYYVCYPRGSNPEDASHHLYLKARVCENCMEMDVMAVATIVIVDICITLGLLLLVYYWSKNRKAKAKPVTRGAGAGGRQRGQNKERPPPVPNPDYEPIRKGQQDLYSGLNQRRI
T2 sequence (Q95LI8 22-171, chain 2 of 3): as the sequence (P04234 22-171, chain 2 of 3) above, with I5V, N15K, I20V, S32T, D33N, I34N, T64A, S74N, V83L, H141R counted along it
T2 sequence (Q95LI7 23-181, chain 3 of 3): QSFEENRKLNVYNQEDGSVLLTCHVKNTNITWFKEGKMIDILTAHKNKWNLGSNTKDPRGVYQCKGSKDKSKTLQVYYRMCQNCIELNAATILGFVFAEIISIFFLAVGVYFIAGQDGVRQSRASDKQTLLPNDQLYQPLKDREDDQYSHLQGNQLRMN
How it was run: as §1

[4] = target: T3, cynomolgus monkey CD3 expressed on cyno primary T cells (cynomolgus monkey, UniProt Q95LI5 22-198; Q95LI8 22-171; Q95LI7 23-181); assay: flow cytometry, cyno primary T cells
T3 construct: whole, on cells; CD3 complex on purified cynomolgus monkey CD3 pan T cells; also called cyno CD3
T3 sequence (Q95LI5 22-198, chain 1 of 3): as the sequence (Q95LI5 22-198, chain 1 of 3) above
T3 sequence (Q95LI8 22-171, chain 2 of 3): as the sequence (P04234 22-171, chain 2 of 3) above, with I5V, N15K, I20V, S32T, D33N, I34N, T64A, S74N, V83L, H141R counted along it
T3 sequence (Q95LI7 23-181, chain 3 of 3): as the sequence (Q95LI7 23-181, chain 3 of 3) above
How it was run: as §1

[5] = target: T4, human CD3 expressed on cells (Jurkat cells; human primary T cells) (human, UniProt P07766 23-207; P04234 22-171; P09693 23-182); assay: flow cytometry, Jurkat cells
T4 construct: whole, on cells
T4 sequence (P07766 23-207, chain 1 of 3): as the sequence (P07766 23-207, chain 1 of 3) above
T4 sequence (P04234 22-171, chain 2 of 3): as the sequence (P04234 22-171, chain 2 of 3) above
T4 sequence (P09693 23-182, chain 3 of 3): as the sequence (P09693 23-182, chain 3 of 3) above
Procedure: as §2

Binder	Human primary T Cell Binding (FOI) [1]	binding result [2]	binding result [3]	binding result [4]	binding result [5]
B1	0.526 FOI	no binding (tested: FOI >=10 = positive)	no binding (tested: FOI >=10 = positive)		
B2	0.778 FOI	no binding (tested: FOI >=10 = positive)	no binding (tested: FOI >=10 = positive)		
B3	0.842 FOI	no binding (tested: FOI >=10 = positive)	no binding (tested: FOI >=10 = positive)		
B4	0.743 FOI	no binding (tested: FOI >=10 = positive)	no binding (tested: FOI >=10 = positive)		
B5	0.772 FOI	no binding (tested: FOI >=10 = positive)	no binding (tested: FOI >=10 = positive)		
B6	0.835 FOI	no binding (tested: FOI >=10 = positive)	no binding (tested: FOI >=10 = positive)		
B7	0.821 FOI	no binding (tested: FOI >=10 = positive)	no binding (tested: FOI >=10 = positive)		
B8	0.796 FOI	no binding (tested: FOI >=10 = positive)	no binding (tested: FOI >=10 = positive)		
B9	0.678 FOI	no binding (tested: FOI >=10 = positive)	no binding (tested: FOI >=10 = positive)		
B10	1.58 FOI	no binding (tested: FOI >=10 = positive)	no binding (tested: FOI >=10 = positive)		
B11	1.44 FOI	no binding (tested: FOI >=10 = positive)	no binding (tested: FOI >=10 = positive)		
B12	1.68 FOI	no binding (tested: FOI >=10 = positive)	no binding (tested: FOI >=10 = positive)		
B13	1.45 FOI	no binding (tested: FOI >=10 = positive)	no binding (tested: FOI >=10 = positive)		
B14	1.36 FOI	no binding (tested: FOI >=10 = positive)	no binding (tested: FOI >=10 = positive)		
B15	1.48 FOI	no binding (tested: FOI >=10 = positive)	no binding (tested: FOI >=10 = positive)		
B16				no binding (tested: FOI <10 (FOI >=10 = positive); 25 nM)	no binding (tested: FOI <10 (FOI >=10 = positive); 25 nM)
